Data reported in publication PMC4045705 (Chembiochem : a European journal of chemical biology, 2014).

Target: phosphorylated extracellular regulated kinase 2 (pERK2) (UniProt P28482 1-360, phosphorylated (sites not given))
Test: SPR

Chain of phosphorylated extracellular regulated kinase 2 (pERK2) (P28482 whole entry): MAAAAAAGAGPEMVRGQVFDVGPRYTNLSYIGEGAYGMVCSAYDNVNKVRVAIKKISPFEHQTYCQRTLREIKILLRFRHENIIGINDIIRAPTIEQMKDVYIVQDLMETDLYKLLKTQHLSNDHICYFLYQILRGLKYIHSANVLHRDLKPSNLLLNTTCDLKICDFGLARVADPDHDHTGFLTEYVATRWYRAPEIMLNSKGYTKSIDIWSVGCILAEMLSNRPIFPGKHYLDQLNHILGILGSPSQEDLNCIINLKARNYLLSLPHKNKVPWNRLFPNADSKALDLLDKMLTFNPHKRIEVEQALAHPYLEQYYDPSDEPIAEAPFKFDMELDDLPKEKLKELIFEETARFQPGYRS

Kd: 0.19 µM
B1: synthetic DARPin pE59 (designed binder)
chain: GGGGGSDLGKKLLEAARAGQDDEVRILXANGADVNALDEDGLTPLHLAAQLGHLEIVEVLLKYGADVNAEDNFGITPLHLAAIRGHLEIVEVLLKHGADVNAQDKFGKTAFDISIDNGNEDLAEILQKLN
modifications: norleucine (Nle) at 28 in place of Met; C-terminal carboxamide (CONH2) at 130Asn
